Article PMC8448731 (Nature Communications, 2021)

B1: SR1_t2 (VHH)
VHH: EVRLVESGGGLVLAGDSLRLSCAASGKTGRSVIMGWFRQAPDKEREFVATITRGDDTTNYADSVKGRFTISRDDARNTVYLQMNSLKPEDTAVYYCAAVYFVNDCIVDYWGQGTQVTVSS
B2: SR2_c3 (VHH)
VHH: EVQLVESGGGLVQAGDSLRLSCAASGAFSSNVFMGWFRQAPGKEREFVASITPHHAVTDYADSVRGRFSISADSAKNTVYLQMNSLKPEDTAVYYCAAAIYRNATVLDYWGQGTQVTVSS
B3: SR2_c4 (VHH)
VHH: EVQLVESGGGLVQAGDSLRLSCAASGAFSSNVFMGWFRQAPGKEREFVASITPHHAVTDYADSVRGRFSISADSAKNTVYLQMNSLKPEDTAVYYCAAAIYCNATVLDYWGQGTQVTVSS
B4: SR2_t5 (VHH)
VHH: QVQLVESGGGLVQAGDSLRLSCAASGAFSSNVFMGWFRQAPGKEREFVASITPHHAVTDYADSVRGRFSISADTAKNTVYLQMNSLKPEDTAVYYCAAAIYRNATVLDYWGQGTQVTVSS
B5: SR4_c1 (VHH)
VHH: EVQLVESGGGLVQAGDSLRLSCAASGFQLSCYCMGWFRQAPGKEREFVASITQHAFRTYYADSVKGRFTISRDDARNTVYLQMNSLKPEDTAVYYCAAAETPNILVHENYWGQGTQVTVSS
B6: SR4_f3 (VHH)
VHH: EVQLVVSGRGLVQAGDSLRLSCAASGFQLSCYCVGWFRQAPGKEREFVASITQHAFRTYYADSVKGRFTISRDDARNTVYLQMNSLKPEDTAVYYCAAAETPNILVYENYWGQGTQVTVSS
B7: SR4_t4 (VHH)
VHH: EVQLVVSGRGLVQAGDSLRLSCAASGFQLSCYCVGWFRQAPGKEREFVASITQHAFRTYYADSVKGRFTISRDDARNTVYLQMNSLKPEDTAVYYCAAAETPNILVHENYWGQGTQVTVSS
B8: SR4_t6 (VHH)
VHH: EVQLVVSGRVLVQAGDSLRLSCAASGFQLSCYCVGWFRQAPGKEREFVASITQHAFRTYYADSVKGRFTISRDDARNTVYLQMNSLKPEDTAVYYCAAAETPNILVHESYWGQGTQVTVSS
B9: SR4_t9 (VHH)
VHH: KVQLVVSGRVLVQAGDSLRLSCAATGFQLSCYCVGWFRQAPGKELEFVASITQHAFRTYYADSVKGRFTISRDDARNTVYLQMNSLKPEDTAVYYCAAAETPNILVHESYWGQGTQVTVSS
B10: SR4_t13 (VHH)
VHH: KVQLVVTGRVLVQAGDSLRLSCVATGFQLSCYCVGWFRQAPGKELEFVASITQHAFRTYYADSVKGRFTISRDDAQNTVYLQMNSLEPEDTAVYYCAAAETPNILVHESYWGQGTQVTVSS
B11: SR6_f3 (VHH)
VHH: QVQLVVSGGGLVQAGDSLRLSCAASGDCHVLWRMGWFRQAPGKEREFVAAISLDGLFTNYADSVRGRFSISADSAENTVYLQMNSLKPEDTAVYYCAAMPFFDYWGQGTQVTVSS
B12: SR6_t5 (VHH)
VHH: QVQLVVSGGGLVQAGDSLRLSCAASGDCHVLWRMGWFRQAPGKEREFVAAISLDGQFTNYADSVRGRFSISADSAKNTVYLQMNSLKPEDTAVYYCAALPFLDYWGQGTQVTVSS
B13: SR6_t6 (VHH)
VHH: QVQLVVSGGGLVQAGDSLRLSCAASGDCHVLWRMGWFRQAPGKEREFVAAISLDGQFTNYADSVRGRFSISADSAENTVYLQMNSLKPEDTAVYYCAALPFLDYWGQGTQVTVSS
B14: SR6_t9 (VHH)
VHH: QVQLVVSGGGLVQAGDSLRLSCTASGDCHVLWRMGWFRQAPGKELEFVAAISLDGQFANYADSVRGRFSISADSAENTVYLQMNSLKPEDTAVYYCAALPFLDYWGQGTQVTVSS
B15: SR12_f3 (VHH)
VHH: QVQLVVSGGGLVQAGDSLRLSCAASGAIVHVFAMGWFRQAPGKEREFVASINLDNDATNYADSVKGRFTISRDDARNTVYLQMNSLKPEDTAVYYCNATIFMDSDLGDYWGRGTQVTVSS
B16: SR12_t6 (VHH)
VHH: QVQLVVSGGGLVQAGDSLRLSCAASGAIVHVFAMGWFRQAPGKEREFVASINLDNDVTNYADSVKGRFTISRDDARNTVYLQMNSLKPEDTAVYYCNATIFTDSGLGDYWGRGTQVTVSS
B17: GST-tagged SR6v15 (VHH)
VHH: EVQLVESGGGLVQAGDSLRLSCAASGDSYILWRMGWFRQAPGKEREFVAAISLDGQFTNYADSVRGRFSISADSAKYTVYLQMNSLKPEDTAVYYCAALPFLDYWGQGTQVTVSS
notes: not shown: GST, C-terminal, kept

target: SARS-CoV-2 spike RBD with C-terminal 3xFlag tag and N-terminal signal peptide of the spike (RBD-3xFlag) (SARS-CoV-2, Wuhan-Hu-1 type (wild type), UniProt P0DTC2); assay: not given; conditions: not given

Does B1 bind?
Result: binds

Does B2 bind?
Result: binds

Does B3 bind?
Result: binds

Does B4 bind?
Result: binds

Does B5 bind?
Result: binds

Does B6 bind?
Result: binds

Does B7 bind?
Result: binds

Does B8 bind?
Result: binds

Does B9 bind?
Result: binds

Does B10 bind?
Result: binds

Does B11 bind?
Result: binds

Does B12 bind?
Result: binds

Does B13 bind?
Result: binds

Does B14 bind?
Result: binds

Does B15 bind?
Result: binds

Does B16 bind?
Result: binds

target: recombinant RBD (ThermoFisher, RP-87678) (SARS-CoV-2, Wuhan-Hu-1 assumed, UniProt P0DTC2); assay: BLI; conditions: one partner purified

Which Kd does the source give for B17 here?
Its Kd is 2.18 nM.
